In the nanobody polyreactivity screen of Harvey et al. (2022):

Assay: yeast display, Sf9 membrane polyspecificity reagent, FACS + sequencing; frameworks hold sequencing errors
Procedure, shortened: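 Using colony PCR, genes from sorted yeast display clones were amplified, then sequenced on MiSeq at 2 × 250 and filtered by CDR length. The clones had been stained with 10% biotinylated, detergent-solubilized Sf9 membrane reagent for 1 hour at 4 °C and sorted by FACS into low and high (top ~1%) gates on anti-HA and streptavidin fluorescence. Polyreactivity labels come from the gate of origin.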

Row | Sequence | polyreactivity (PSR sort gate)
1 | QVQLVESGGGLVQAGGSLRLSCAASGSTFERYVMGWYRQRQGKKWSWLPVLNHNGGSTYYADSVKGRFTISRDNAKNSVYLQMNSRKPEYTAVYYCAKDGLNESQFPGNLRDYWGQGTQVNVSS | low polyreactivity
2 | QVQLVESGGGLVQAGGSLRLSCAASGSTFESNAMGWYRQAPGKERELVAAISRGRTNYADSVKGRFTISRDNAKNTVYLQMNSLKPEDTAVYYCAADGLSNVRQMDYWGQGTQVTVSS | low polyreactivity
3 | QVQLVESGGGLVQAGGSLRLSCAASGSTFESYAMGWYRQAPGKERELVAAISGRVGSTYYADSVKGRFTISRDNAKNTVYLQMNSLKPEDTAVYYCASKGWYSHYGGYDYWGQGTQVTVSS | low polyreactivity
4 | QVQLVESGGGLVQAGGSLRLSCAASGSTFEVYAMGWYRQAPGTERELVAVITNSGTSTNYADSVKGRFTISRDNAKNTVYLQMTSLKPEDTAVYYCAADVEWTSRGSYYRYYYWGQGTQVTVSS | low polyreactivity
5 | QVQLVESGGGLVQAGGSLRLSCAASGSTFEYNAMGWYRQAPGKERELVASSTNYADSVKGRFTISLDNAKNTVYLQMNSLKPEDTAVYYCAREQGVNRNHDYWGQGTQVNVSS | low polyreactivity
6 | QVQLVESGGGLVQAGGSLRLSCAASGSTFFANTMGWYRQAPGKERELVAAIRDSGGSTYYADSVKGRFTISRDNSKNTVYLQMNSLKPEDTAVYYCSARYLVYGYPYRFYYWGQGTQVTVSS | high polyreactivity
7 | QVQLVESGGGLVQAGGSLRLSCAASGSTFFDNAMGWYRQAPGKERELVAAISWSGARTYYADSVKGRFTISRDNAKNTVYLQMNSLKPEDTAVYYCAARFYVSNSRKSARNYWGQGTQVTVSS | high polyreactivity
8 | QVQLVESGGGLVQAGGSLRLSCAASGSTFFDYAMGWYRQAPGKERELVAVISDGGTTTYADSVKGRFTISRDNAKNTVYLQMNSLKPVDTAVYYCAAENQDGLLVILGGYGYWGQGTQVTVSS | low polyreactivity
9 | QVQLVESGGGLVQAGGSLRLSCAASGSTFFEYTMGWYRQAPGKEREFVADIRGRDGSTSYADSVKGRFTISRDNAKNTVYLQMKSLKPEDTAVYYCGADVSDWWSFGNDSWGHGTQVTVSS | low polyreactivity
10 | QVQLVESGGGLVQAGGSLRLSCAASGSTFFEYTMGWYRQAPGKEREFVADIRGRDGSTSYADSVKGRFTISRDNAKNTVYLQMNSLKPEDTAVYYCAADVSDWWSFGNDSWGQGTQVTVSS | low polyreactivity
11 | QVQLVESGGGLVQAGGSLRLSCAASGSTFFFNEMGWYRQAPGKEREVVAAITGRSGSTYYADSVKGRFTISRDNANNTDYLQMNSLKPEDNAVYYCAGDYSPWRSDFDYWGQGTQVTVSS | low polyreactivity
12 | QVQLVESGGGLVQAGGSLRLSCAASGSTFFGNAMGWYRQAPGKERELVAVITKGGGSTYYADSVKGRFTISRDNAKNTVYLQMNSLKPEDTAVYYCAKTYTSGYHRRYDYWGQGTQVTVSS | low polyreactivity
13 | QVQLVESGGGLVQAGGSLRLSCAASGSTFFHYAMGWYRQAPGKERELVAAIDSNGGSTYYADSVKGRFTISRDNAKNTVYLQMNSLKPEVTAVYYCAADDLAEFEYDYWGLGTQVTVSS | low polyreactivity
14 | QVQLVESGGGLVQAGGSLRLSCAASGSTFFIYAMGWYRQAPGKERELVAAISGSGGTTYYADSVKGRFTISRDNAKNTVYLQMNSLKPEDTAVYYCAARTFSAFWRGGYDYWGQGTQVTVSS | low polyreactivity
15 | QVQLVESGGGLVQAGGSLRLSCAASGSTFFKNAMGWYRQAPGKESELVAGISYGGGRTYYADSVKGRFTISRDNAKNTVYLQMKSLKPEDTAVYYCNTVTSPAPYYSYDSWGQGTQVTVSS | high polyreactivity
16 | QVQLVESGGGLVQAGGSLRLSCAASGSTFFLYGRGWYRQARGKERELVATISKRGGSTHYADSVKGRFTISRDNAKNTVYVQKHSLKPEDTAVYYCAAGRPGVSFKEWSYKPSSSYDYWGQGTQVTVSS | low polyreactivity
17 | QVQLVESGGGLVQAGGSLRLSCAASGSTFFLYSMGWYRPAPGKERELVAAINYIGGTYYADSVKGRFTISRDNAKNTVYLQMNSLKPEDTAVYYCAASYVGTIAGMDYWGQGTQVTVSS | low polyreactivity
